Test results published in patent publication US6410255B1, “Optical probes and assays” (priority 1999, dated 2002).
*1 amine or outer side, *2 acyl side, *3 side chain or, on linkers, in order; H or OH if unused. Where a SMILES comes first, the peptide text is derived from it. Bridges are numbered along the chain shown (N, C = ends). Where no end group is shown, it is not given here. [ ]: non-standard residue; d: D form. Adda = CO[C@@H](Cc1ccccc1)[C@@H](C)/C=C(C)/C=C/[C@H](N[*:1])[C@H](C)C(=O)[*:2]; dAsp(3S-Me) = C[C@H](C(=O)[*:3])[C@@H](N[*:1])C(=O)[*:2]; d(γGlu) = O=C(O)[C@@H](CCC(=O)[*:2])N[*:1]; pS = N[C@@H](COP(=O)(O)O)C(=O)O; NMeDha = C=C(NC)C(=O)O

Tests used:
Format in all cases: biochemical
[1] = molecular target: T1, v-Abl kinase (Abelson murine leukemia virus, UniProt P00521); assay: v-Abl kinase phosphorylation of optical probe, fluorescence readout after chymotrypsin; details: v-Abl, abl optical probe as substrate; read-out: apparent Km for ATP
T1 construct: purchased Calbiochem

[2] = molecular target: PP1 (Homo sapiens, UniProt P62136); assay: PP1 inhibitor assay with optical probe
Description: (§1) To determine if the optical probe protein phosphatase assay could detect inhibitors of PP1, the phosphatase assay was performed in the presence or absence of 1 μM microcystin-LR, a potent inhibitor of PP1. Phosphatase assays were set up as described above except the phosphatase was allowed to pre-incubate with microcystin-LR for 10 minutes before the addition of phosphorylated or non-phosphorylated optical probes (SEQ. ID. NO: 23). PP1 reactions were incubated at 30 C for 1 hour and then diluted to 100 μL in 50 mM HEPES, pH 7.5 followed by the addition of chymotrypsin to 0.2 μM. Fluorescence values were measured on the Cytofluor after a 2 hour incubation at room temperature as described above. After treatment of the phosphorylated optical probe with PP1 followed by chymotrypsin, the 460/530 ratio was 13.2±0.2. […] Thus, the present invention could be used to detect inhibitors of PP1 activity.

[3] = molecular target: PP2A (Homo sapiens, UniProt P67775); assay: PP2A inhibitor assay with optical probe
Description: (§2) To determine if the optical probe phosphatase assay could detect inhibitors of PP2A, the phosphatase assay was performed in the presence or absence of 100 nM microcystin-LR. PP2A assays were set up as described above, and were incubated at 30 C for 2 hours. Reactions were diluted to 100 μL with 50 mM HEPES, pH 7.5 followed by the addition of chymotrypsin to 0.2 μM. Fluorescence values were measured on the Cytofluor after a 1.5 hour incubation at room temperature. As described above, treatment of the phosphorylated optical probe (SEQ. ID. NO: 23) with PP2A followed by chymotrypsin gave a final 460/530 ratio of 8.8±0.1. […] Thus, the optical probe based phosphatase assay can detect inhibitors of PP2A activity.

[4] = molecular target: T2, chymotrypsin (Bos taurus, UniProt P00766); assay: Control: effect of inhibitor on chymotrypsin cleavage of non-phosphorylated probe
Description: as §1, §2

[5] = molecular target: T2, chymotrypsin; assay: Chymotrypsin cleavage of optical probe with or without casein kinase 1 phosphorylation
Text: To measure casein kinase 1 activity, an optical probe was designed as described above. In this case, the kinase substrate was designed so that the point of phosphorylation was located at the P′2 position (underlined in SEQ. I.D. NO: 17 below) with respect to the scissile bond cleaved by chymotrypsin, which enables the creation of a recognition motif suitable for casein kinase 1. A substrate peptide ([…], SEQ. ID. NO: 17) was synthesized and labeled with fluorescein isothiocyanate at the N-terminus and 7-hydroxycoumarin-3-carboxamide at the C-terminus as described in Example 1.
Samples of phosphorylated and non-phosphorylated optical probes were prepared and tested as described in Example 1. In this case, complete phosphorylation of the optical probe (1 μM) was obtained after room temperature incubation for 15 to 30 minutes in the presence of 500 Units of casein kinase 1 (New England BioLabs) in 50 mM Tris-Cl, pH 7.5, 10 mM MgCl2, 5 mM DTT, and 200 μM ATP.
To determine the relative proteolytic sensitivity of phosphorylated and non-phosphorylated optical probes, samples of both were incubated with various concentrations of chymotrypsin and the cleavage monitored by measuring the 460/530 emission ratio as described in Example 1.

[6] = molecular target: protein phosphatase I (PPI) (Homo sapiens, UniProt P62136); assay: Protein phosphatase I dephosphorylation of optical probe
Description: To determine if the optical probes could be used to detect serine/threonine phosphatase activities, samples of the casein kinase 1 specific phosphorylated optical probes were prepared and treated with various serine/threonine protein phosphatases. To do this, the casein kinase 1 optical probe ([…], SEQ. ID. NO: 17) (100 μM) was phosphorylated to completion with CKI (2000 units) in a 100 μL reaction containing 200 μM ATP for 5 hours at 30° C. A mock kinase reaction was performed which contained no ATP for preparation of control, non-phosphorylated optical probes. The resistance of the phosphorylated optical probe to chymotrypsin cleavage (data not shown) confirmed complete phosphorylation of the CKI-treated optical probe. Phosphorylated and non-phosphorylated samples of the optical probe (2 μM) were incubated in a 50 μL volume with or without 1 unit of the serine/threonine phosphatase protein phosphatase I (PPI) for 2 hours at 30° C. in a buffer consisting of 50 mM Tris-Cl, pH 7.0, 0.1 mM EDTA, 5 mM DTT, 0.01% Brij-35, and 1 mM MnCl2. The reactions were diluted to 100 μL with 50 mM HEPES, pH 7.5, incubated with chymotrypsin (0.2 μM) for 1 hour at room temperature, and fluorescence values were measured on the Cytofluor as described above. Before chymotrypsin addition all reactions had similar 460/530 ratios of about 1.2.

[7] = molecular target: protein phosphatase 2A (PP2A) (Homo sapiens, UniProt P67775); assay: Protein phosphatase 2A dephosphorylation of optical probe; details: 1.5 hour chymotrypsin incubation
Description: The optical probes were also evaluated to determine if they could be used to measure protein phosphatase 2A (PP2A) activity. Phosphorylated and non-phosphorylated samples of the CKI optical probes ([…]) were prepared and incubated with 0.03 units of PP2A as described above, except MnCl2 was not included. After dilution and addition of chymotrypsin as described above, fluorescence values were measured using a 96 well plate reader (Cytofluor). After a 1.5 hour chymotrypsin incubation, the 460/530 emission ratio of the phosphorylated optical probe was 1.8±0.2 (Table 18).

[8] = molecular target: T2, chymotrypsin; assay: Chymotrypsin cleavage of optical probe with or without ERK phosphorylation; details: for 460/530 Emission Ratio, Negative Control (No Active Kinase) / 460/530 Emission Ratio, Positive Control (Active Kinase): 4 nM chymotrypsin
Description: This substrate (100 μM) was phosphorylated by incubation at 30 C for 3 hours in a 100 μL reaction containing 500 ng ERK (Biomol) and 500 μM ATP in a buffer consisting of 50 mM Tris-Cl, pH 7.5, 10 mM MgCl2, 1 mM EGTA, 2 mM DTT, and 0.01% Brij-35. To test the proteolytic sensitivity of phosphorylated and non-phosphorylated samples, 2 μL of the mock (no kinase) or kinase reaction was diluted to 100 μL in a buffer containing 50 mM HEPES, pH 7.5, 10 mM CaCl2, and 0.01% Brij-35, and incubated with chymotrypsin at a concentration of 4 nM. Cleavage reactions were monitored on the Cytofluor for 1 hr. […] The maximum fold difference in 460/530 ratio was about 15.2 and occurred after 30 minutes of cleavage.

[9] = no inhibitor, chymotrypsin 0.2 μM, 2 hour
[10] = no inhibitor, chymotrypsin 0.2 μM, 1.5 hour

Chain of protein phosphatase I (PPI) (P62136 whole entry): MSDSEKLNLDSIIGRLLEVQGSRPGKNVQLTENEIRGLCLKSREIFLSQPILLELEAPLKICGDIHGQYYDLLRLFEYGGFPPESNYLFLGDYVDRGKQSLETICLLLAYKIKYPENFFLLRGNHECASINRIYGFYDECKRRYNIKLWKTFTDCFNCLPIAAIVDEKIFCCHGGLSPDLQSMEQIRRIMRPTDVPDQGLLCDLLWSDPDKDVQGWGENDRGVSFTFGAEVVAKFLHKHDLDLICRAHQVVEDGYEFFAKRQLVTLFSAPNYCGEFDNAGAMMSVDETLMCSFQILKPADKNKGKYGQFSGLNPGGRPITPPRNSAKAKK
Chain of PP1 (P62136 whole entry): as above
Chain of PP2A (P67775 whole entry): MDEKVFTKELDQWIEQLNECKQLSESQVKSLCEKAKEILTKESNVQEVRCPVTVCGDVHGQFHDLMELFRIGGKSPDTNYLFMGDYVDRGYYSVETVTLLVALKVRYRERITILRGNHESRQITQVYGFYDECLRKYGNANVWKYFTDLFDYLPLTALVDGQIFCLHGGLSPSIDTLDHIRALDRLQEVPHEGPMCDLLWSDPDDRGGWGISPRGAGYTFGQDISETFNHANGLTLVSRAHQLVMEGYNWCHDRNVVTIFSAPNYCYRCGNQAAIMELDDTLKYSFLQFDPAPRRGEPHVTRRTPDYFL
Chain of protein phosphatase 2A (PP2A) (P67775 whole entry): as above
T1 sequence (P00521 whole entry): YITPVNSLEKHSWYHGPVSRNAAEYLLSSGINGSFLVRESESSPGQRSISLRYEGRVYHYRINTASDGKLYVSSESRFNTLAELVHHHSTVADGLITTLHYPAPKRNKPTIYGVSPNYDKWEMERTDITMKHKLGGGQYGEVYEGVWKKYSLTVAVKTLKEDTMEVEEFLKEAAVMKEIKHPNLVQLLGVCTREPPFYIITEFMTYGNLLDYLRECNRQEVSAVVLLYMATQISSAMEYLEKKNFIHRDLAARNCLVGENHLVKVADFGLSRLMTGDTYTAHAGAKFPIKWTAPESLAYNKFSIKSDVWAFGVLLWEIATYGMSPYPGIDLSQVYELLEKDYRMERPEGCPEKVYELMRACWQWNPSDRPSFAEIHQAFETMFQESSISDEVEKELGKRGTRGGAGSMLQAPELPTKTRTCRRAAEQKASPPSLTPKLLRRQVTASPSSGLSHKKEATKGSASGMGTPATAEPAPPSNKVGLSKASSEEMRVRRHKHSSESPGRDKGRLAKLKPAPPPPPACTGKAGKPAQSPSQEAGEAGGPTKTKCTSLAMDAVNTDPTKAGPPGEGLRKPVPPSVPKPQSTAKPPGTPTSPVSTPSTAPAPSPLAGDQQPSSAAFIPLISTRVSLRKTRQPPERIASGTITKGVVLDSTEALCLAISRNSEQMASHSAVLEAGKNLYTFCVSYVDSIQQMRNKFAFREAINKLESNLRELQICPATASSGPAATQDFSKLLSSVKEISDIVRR

## Nc1ncnc2c1ncn2[C@@H]1O[C@H](COP(=O)(O)OP(=O)(O)OP(=O)(O)O)[C@@H](O)[C@H]1O [ATP]
[1]
  Km: 8 µM

## C=C1C(=O)N[C@H](C)C(=O)N[C@@H](CC(C)C)C(=O)N[C@@H](C(=O)O)[C@H](C)C(=O)N[C@@H](CCCNC(=N)N)C(=O)N[C@@H](/C=C/C(C)=C/[C@H](C)[C@H](Cc2ccccc2)OC)[C@H](C)C(=O)N[C@@H](C(=O)O)CCC(=O)N1C [microcystin-LR, reference compound] (R[Adda][d(γGlu)][NMeDha][dA]L[dAsp(3S-Me)]-OH; lactam N-7)
[2]
  460/530 ratio After Chymotrypsin, Phosphorylated Optical probe + PP1 + microcystin-LR: 2.8 ± 0.1
  inhibition of PP1 activity: almost completely inhibited
[3]
  460/530 ratio After Chymotrypsin, Phosphorylated Optical probe + PP2A + microcystin-LR: 1.9 ± 0.1
  460/530 ratio Before Chymotrypsin, Phosphorylated Optical probe + PP2A + microcystin-LR: 1.4 ± 0.1
  inhibition of PP2A activity: completely inhibited
[4]
  460/530 ratio After Chymotrypsin, Non-phosphorylated Optical probe + PP1 + microcystin-LR: 13.3 ± 0.2
  460/530 ratio After Chymotrypsin, Non-phosphorylated Optical probe + PP2A + microcystin-LR: 11.1 ± 0.2
  460/530 ratio Before Chymotrypsin, Non-phosphorylated Optical probe + PP2A + microcystin-LR: 1.4 ± 0.1
  inhibition of chymotrypsin cleavage: did not inhibit

## GDQDYLSLDK (GDQDYL[pS]LDK; also: FITC and hydroxycoumarin carboxamide labels, places not given here) [casein kinase 1 optical probe, peptide labeled with fluorescein isothiocyanate and 7-hydroxycoumarin-3-carboxamide; casein kinase 1 substrate]
[5]; chymotrypsin 0.04 μM
  460/530 Emission Ratio, Negative Control (No Active Kinase): 3.0
  460/530 Emission Ratio, Positive Control (Active Kinase Only): 1.2
  Fold difference in ratios: 2.5
[5]; chymotrypsin 0.1 μM
  460/530 Emission Ratio, Negative Control (No Active Kinase): 6.6
  460/530 Emission Ratio, Positive Control (Active Kinase Only): 1.4
  Fold difference in ratios: 4.7
[5]; chymotrypsin 0.2 μM
  460/530 Emission Ratio, Negative Control (No Active Kinase): 10.9
  460/530 Emission Ratio, Positive Control (Active Kinase Only): 1.7
  Fold difference in ratios: 6.4
[5]; chymotrypsin 0.3 μM
  460/530 Emission Ratio, Negative Control (No Active Kinase): 12.3
  460/530 Emission Ratio, Positive Control (Active Kinase Only): 1.9
  Fold difference in ratios: 6.5
[5]; chymotrypsin 0.4 μM
  460/530 Emission Ratio, Negative Control (No Active Kinase): 14.3
  460/530 Emission Ratio, Positive Control (Active Kinase Only): 2.3
  Fold difference in ratios: 6.2
[5]; chymotrypsin 1.0 μM
  460/530 Emission Ratio, Negative Control (No Active Kinase): 15.4
  460/530 Emission Ratio, Positive Control (Active Kinase Only): 3.8
  Fold difference in ratios: 4.1
[5]; chymotrypsin 2.0 μM
  460/530 Emission Ratio, Negative Control (No Active Kinase): 15.6
  460/530 Emission Ratio, Positive Control (Active Kinase Only): 6.0
  Fold difference in ratios: 2.6
[6]; 1 unit PPI, 2 hours at 30° C., chymotrypsin 0.2 μM, 1 hour
  460/530 Emission Ratio After Chymotrypsin, Phosphorylated Control + Phosphatase (PP1): 10.0
[6]; all reactions
  460/530 ratio before chymotrypsin addition: about 1.2
[6]; chymotrypsin 0.2 μM, 1 hour
  460/530 Emission ratio After Chymotrypsin, Non-phosphorylated Control: 9.8
  460/530 Emission ratio After Chymotrypsin, Phosphorylated Control: 2.0
[7]; 0.03 units PP2A
  460/530 Emission ratio After Chymotrypsin, Phosphorylated Control + Phosphatase (PP2A): 8.8 ± 0.1
[7]
  460/530 Emission ratio After Chymotrypsin, Non-phosphorylated Control: 11.0 ± 0.1
  460/530 Emission ratio After Chymotrypsin, Phosphorylated Control: 1.8 ± 0.2
[2]; [9]
  460/530 ratio After Chymotrypsin, Non-phosphorylate Optical probe + PP1: 13.2 ± 0.1
  460/530 ratio After Chymotrypsin, Phosphorylated Optical probe + PP1: 13.2 ± 0.2
[3]; no inhibitor
  460/530 ratio Before Chymotrypsin, Non-phosphorylate Optical probe + PP2A: 1.4 ± 0.0
  460/530 ratio Before Chymotrypsin, Phosphorylated Optical probe + PP2A: 1.3 ± 0.0
[3]; [10]
  460/530 ratio After Chymotrypsin, Non-phosphorylate Optical probe + PP2A: 11.1 ± 0.1
  460/530 ratio After Chymotrypsin, Phosphorylated Optical probe + PP2A: 8.8 ± 0.1

## VAPFSPGGRAK [optical probe designed as a substrate for extracellular signal-regulated kinase (ERK)]
[8]; time of cleavage 0 min
  460/530 Emission Ratio, Negative Control (No Active Kinase): 0.28
  460/530 Emission Ratio, Positive Control (Active Kinase): 0.33
  Fold difference in ratios: 0.85
[8]; time of cleavage 10 min
  460/530 Emission Ratio, Negative Control (No Active Kinase): 4.17
  460/530 Emission Ratio, Positive Control (Active Kinase): 0.44
  Fold difference in ratios: 9.45
[8]; time of cleavage 20 min
  460/530 Emission Ratio, Negative Control (No Active Kinase): 7.56
  460/530 Emission Ratio, Positive Control (Active Kinase): 0.56
  Fold difference in ratios: 13.55
[8]; time of cleavage 30 min
  460/530 Emission Ratio, Negative Control (No Active Kinase): 10.03
  460/530 Emission Ratio, Positive Control (Active Kinase): 0.66
  Fold difference in ratios: 15.16
[8]; time of cleavage 40 min
  460/530 Emission Ratio, Negative Control (No Active Kinase): 11.71
  460/530 Emission Ratio, Positive Control (Active Kinase): 0.78
  Fold difference in ratios: 14.99
[8]; time of cleavage 50 min
  460/530 Emission Ratio, Negative Control (No Active Kinase): 12.73
  460/530 Emission Ratio, Positive Control (Active Kinase): 0.89
  Fold difference in ratios: 14.34
[8]; time of cleavage 60 min
  460/530 Emission Ratio, Negative Control (No Active Kinase): 13.40
  460/530 Emission Ratio, Positive Control (Active Kinase): 1.00
  Fold difference in ratios: 13.36
